Test results as given in US12187807B2, “Antibody molecules to C5AR1 and uses thereof” (Visterra, Inc., priority 2020, dated 2025).

Assays:
C5aR1 (C5aR1-U937 cells) = biological target: T1, C5aR1 (C5aR1-U937 cells) (Homo sapiens, UniProt P21730, K279N); experiment: C5a induced chemotaxis (transwell), C5aR1-U937 cells; format: cell-based; settings: for inhibition of cell chemotaxis: C5aR1-U937 cells, 1, 10, or 100 nM antibody, C5a 10^−6 to 10^−9.5 M; for inhibition of chemotaxis as single agents: FIGS. 18A-18C, cells not given
T1 construct: expressed in transfected cells
T1 sequence (P21730 with tags, fused parts or gaps K279N limits assumed): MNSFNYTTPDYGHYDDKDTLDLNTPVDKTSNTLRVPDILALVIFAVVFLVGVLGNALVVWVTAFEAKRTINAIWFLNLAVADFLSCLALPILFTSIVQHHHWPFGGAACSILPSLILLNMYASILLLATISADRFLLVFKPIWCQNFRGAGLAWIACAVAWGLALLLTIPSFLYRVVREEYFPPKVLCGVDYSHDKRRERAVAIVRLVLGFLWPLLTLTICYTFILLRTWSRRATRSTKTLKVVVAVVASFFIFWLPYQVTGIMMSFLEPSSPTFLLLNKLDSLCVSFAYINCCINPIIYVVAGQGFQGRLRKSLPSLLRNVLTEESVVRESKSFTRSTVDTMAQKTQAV
Source text: (§1) One of the primary mechanisms by which neutrophils migrate to the site of inflammation is by chemotaxis induced by a C5a/C5adesArg gradient is detected by C5aR1 signaling. Anti-C5aR1 antibodies were thus assessed in a chemotaxis assay for their ability to block C5a induced migration of neutrophils. The assay involved cell migration in a double chamber well separated by filters. The cells and inhibitors were applied into the upper chamber and the lower chamber was filled with the chemoattractant, causing the cells to migrate to the lower chamber. The inhibition activity was evaluated by counting the migrated cell numbers. Specifically, a titration of C5a was added to the bottom chamber a 96 transwell plate. Cells expressing human C5aR1 (C5aR1-U937 cells or human neutrophils) were incubated with or without antagonist and then seeded into the top chamber of the transwell plate. The cells were incubated for 2 hours. Cells that migrated to the bottom chamber were quantified using the CyQUANT cell proliferation kit following the manufacturer's protocol. The assay was performed using engineered cells stably expressing C5aR1 as well as using human neutrophils.
as §1, with “Anti-C5aR1” for “One of the primary mechanisms by which neutrophils migrate to the site of inflammation is by chemotaxis induced by a C5a/C5adesArg gradient is detected by C5aR1 signaling. Anti-C5aR1”, “were” for “were thus”
In a first experiment, C5aR1-U937 cells were seeded into the top chamber of a 96 Transwell plate in the presence of no antibody (antagonist), or of 1, 10, or 100 nM antibody (antagonist).

[1] = biological target: T2, C5aR1 mutants (N-terminus, ECL1, ECL2, ECL3) (Homo sapiens, UniProt P21730, K17N/K279N); experiment: Alanine scanning / mutagenesis epitope mapping of C5aR1; format: binding; settings: insertion of a glycan at K17N
T2 sequence (P21730 with tags, fused parts or gaps K17N/K279N): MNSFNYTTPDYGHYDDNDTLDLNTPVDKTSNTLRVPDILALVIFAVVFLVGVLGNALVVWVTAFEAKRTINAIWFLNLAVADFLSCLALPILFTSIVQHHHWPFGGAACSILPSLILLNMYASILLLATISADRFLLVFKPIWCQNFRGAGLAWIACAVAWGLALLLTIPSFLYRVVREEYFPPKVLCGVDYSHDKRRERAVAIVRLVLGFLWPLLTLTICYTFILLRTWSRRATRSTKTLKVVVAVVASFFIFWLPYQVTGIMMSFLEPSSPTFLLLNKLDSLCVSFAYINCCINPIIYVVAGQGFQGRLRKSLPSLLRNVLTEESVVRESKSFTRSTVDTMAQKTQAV
Source text: (§2) FIG. 5A is a diagram showing the results of alanine scanning mutations of site I interaction with mab 583. The N-terminal amino acid sequence of C5aR1 is listed across the top of the figure. Glycosylation sites are indicated by rectangle boxes. The only natural glycosylation site is at position N5. The other sites were introduced by mutagenesis. Mutations that abolished clone 583 binding are circled. The sulfated tyrosines at positions 11 and 14 are marked with a star sign. FIG. 5B is a diagram showing results of alanine scanning mutations of site I interaction with mab 66. Mutations that abolished clone 66 binding are circled. The sulfated tyrosines at positions 11 and 14 are marked with a star sign.
(§3) Ala substitutions of T8 & D10 moderately reduces its affinity while Y11 & D15 abolishes mAb binding. […] N-glycosylation of at N17 or D17P also abolishes mAb binding. N5 glycan is tolerated but a tandem glycosylation (N5 & N17) is not tolerated. mAb core epitopes are T8-G12 but nature of AA present in D15-D18 influence its binding. […] The core epitope appears to be located near T8-G12, with additional contributions from D15-D18.
(§4) Clone 66 was previously characterized as a site I binder and its binding is dependent on tyrosine sulfation at positions 11Y and/or 14Y. […] It should be noted that the only the only non-human species to retain clone 66 binding was baboon, which is the only NHP that retains the DYGHY motif.
(§5) However, it was unknown if additional contacts were made with ECL1 or ECL3. […] The data is highlighted in FIG. 5C-5E.
(§6) The core epitope of clone 11 is from E180-P183; the core epitope of clone 329 is from E180-P184; and the core epitope of clone 336 is from R178-P183. […] The data for clones 11, 329, and 336 is highlighted in FIG. 5F.

[2] = biological target: T3, C5aR1 mutants (N-terminus, ECL1, ECL2, ECL3) (Homo sapiens, UniProt P21730, D10A/K279N); experiment: as above; format: binding; settings: D10A
T3 sequence (P21730 with tags, fused parts or gaps D10A/K279N): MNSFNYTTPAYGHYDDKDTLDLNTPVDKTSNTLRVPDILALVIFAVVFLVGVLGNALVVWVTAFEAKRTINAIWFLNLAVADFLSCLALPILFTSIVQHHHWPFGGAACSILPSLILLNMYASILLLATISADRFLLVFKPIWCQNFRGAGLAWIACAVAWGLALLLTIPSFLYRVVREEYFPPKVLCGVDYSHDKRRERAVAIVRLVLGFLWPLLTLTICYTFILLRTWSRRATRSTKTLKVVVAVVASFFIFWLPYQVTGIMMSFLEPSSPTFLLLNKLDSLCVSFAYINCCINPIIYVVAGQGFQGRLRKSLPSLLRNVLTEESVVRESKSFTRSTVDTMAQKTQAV
Source text: as §2, §3, §4, §5, §6

B1: clone 329: anti-C5aR1 Site II antibody; VH SEQ ID NO: 492, VL SEQ ID NO: 552 (antibody, V domains shown)
VH: QVQLQQSGAELTKPGASVKLSCKASGYTFTNYWMHWVKQRPGQGLEWIGYLNPSSGYTKYNQKFKDKATLTADKSSSTAYMQLNSLTYEDSAVYYCTRSGGDNYGNPYYFDRWGQGTTVTVSS
VL: DVVMTQTPLSLTVSLGDQASISCRSSQSLVHSNGNTYLHWYLQKPGQSPKFLIYKVSNRFSGVPDRFSGSGSGTDFRLKISRVEAEDLGVYFCSQSTLVPLTFGAGTKLEIK
inhibition of cell chemotaxis (C5aR1 (C5aR1-U937 cells)): strongest effects | inhibition of chemotaxis as single agents (C5aR1 (C5aR1-U937 cells)): inhibited chemotaxis as single agents in a dose-dependent manner

B2: clone 583: anti-C5aR1 Site I antibody; VH SEQ ID NO: 536, VL SEQ ID NO: 595 (antibody, V domains shown)
VH: EVQLVESGGGLVKPGGSLKLSCAASGFTFNAYAMSWVRQTPEKRLEWVASISTGGNTYCPDSVKDRFTVSRDNVRNILYLQMSSLRSEDTAMYYCTRGYQRFSGFAYWGQGTLVTVS
VL: DVVMTQTPLSPPVSLGYQASISCRSSQSLVHSNGNTYLNWYLQKPGQSPKLLIYKVSNRLSGVPDRFSGSGSGTDFTLKISRVETEDLGVYFCSQSTHVPYTFGGGTKLEIK
binding to C5aR1 mutant [1]: abolishes binding | binding to C5aR1 mutant [2]: moderately reduce binding | inhibition of cell chemotaxis (C5aR1 (C5aR1-U937 cells)): strongest effects | inhibition of chemotaxis as single agents (C5aR1 (C5aR1-U937 cells)): inhibited chemotaxis as single agents in a dose-dependent manner
